Tested on: immune cells
Assay: Inducing activity for interferon-γ in immune cells
Assay type: cell-based
Settings: IL-12 (positive control) with 40 ng/mL
Method: The herbal extract (prepared by Example 1) was added in T lymphocytes and natural killer cells (NK92) separated from peripheral blood. After 24 hours, the upper-layered solution was collected and the quantity of interferon thereof was measured by ELISA. […] The dosage effect appears in both the T lymphocytes and natural killer cells (NK92). The quantity of interferon-α induced by PC-IL-12 (positive control) and the herbal extract was measured in the same manner. […] Additionally, the quantity of interferon-α produced by inducing T lymphocytes by the herbal extract with 250-1,000 μg/mL was obvious, as shown in FIGS. 2B and 2C.
The inducing activity for interferon-γ of the herbal extract (prepared by Example 3) was tested.

B1: IL-12: IL-12 (positive control) with 40 ng/mL (protein, UniProt P29459 23-219; P29460 23-328, looked up)
Interleukin-12 subunit alpha: RNLPVATPDPGMFPCLHHSQNLLRAVSNMLQKARQTLEFYPCTSEEIDHEDITKDKTSTVEACLPLELTKNESCLNSRETSFITNGSCLASRKTSFMMALCLSSIYEDLKMYQVEFKTMNAKLLMDPKRQIFLDQNMLAVIDELMQALNFNSETVPQKSSLEEPDFYKTKIKLCILLHAFRIRAVTIDRVMSYLNAS
Interleukin-12 subunit beta: IWELKKDVYVVELDWYPDAPGEMVVLTCDTPEEDGITWTLDQSSEVLGSGKTLTIQVKEFGDAGQYTCHKGGEVLSHSLLLLHKKEDGIWSTDILKDQKEPKNKTFLRCEAKNYSGRFTCWWLTTISTDLTFSVKSSRGSSDPQGVTCGAATLSAERVRGDNKEYEYSVECQEDSACPAAEESLPIEVMVDAVHKLKYENYTSSFFIRDIIKPDPPKNLQLKPLKNSRQVEVSWEYPDTWSTPHSYFSLTFCVQVQGKSKREKKDRVFTDKTSATVICRKNASISVRAQDRYYSSSWSEWASVPCS
  interferon-γ produced: 50 ± 2.04 pg/mL
